Source: US20230049152A1 (Genentech, published 2023)

How the values were obtained:
human CCR8 [1] = target: T1, human CCR8 (human, UniProt P51685 1-355); test: flow cytometry, CHO-huCCR8.Gna15 cells, relative to rb.Ab4
T1 construct: the assay field says which; also called hCCR8; huCCR8
Method: (§1) Evaluation of CCR8 binding of the humanized variants with a hIgG1 Fc involved screening by flow cytometry, and comparing the relative EC₅₀ and MFI on human CCR8 CHO cells to the parental rabbit antibodies. Specifically, stable CHO-huCCR8.Gna15 cells were stained with various concentrations (starting from 10 ug/ml or 66.66 nM, 1:4 serial dilution for total 8 concentration points) of Ab4 and Ab5 variants at 4° C. for 30 minutes, then washed twice with FACS buffer (PBS with 0.5% BSA and 0.2 mM EDTA) and followed by staining with AF647-anti-hIgG at 4° C. for 15 min. Cells were washed twice with FACS buffer, and re-suspended in FACS buffer with propidium iodide (0.5 ug/ml) and analyzed with iQue3 (Sartorius).

human CCR8 [2] = target: T1, human CCR8; test: flow cytometry, CHO-huCCR8.Gna15 cells, relative to rb.Ab5
Method: as §1

Relative EC50 (human CCR8 [1])	Relative MFI (human CCR8 [1])	Relative EC50 (human CCR8 [2])	Relative MFI (human CCR8 [2])	Binder
0.99 ratio	1.07 ratio	–	–	hu.Ab4.H2L1 (antibody, human IgG1, kappa) heavy: not shown light: DYQMTQSPSSLSASVGDRVTITCQASQSISSYLSWYQQKPGKRPKLLIYKASTLASGVPSRFSGSGSGTDFTLTISSLQPEDFATYYCQQGYTSSNIDNIFGGGTKVEIKRTVAAPSVFIFPPSDEQLKSGTASVVCLLNNFYPREAKVQWKVDNALQSGNSQESVTEQDSKDSTYSLSSTLTLSKADYEKHKVYACEVTHQGLSSPVTKSFNRGEC
1 ratio	1.02 ratio	–	–	hu.Ab4.H3L1 (antibody, human IgG1, kappa, V domains shown) VH: EQQLLESGGGLVQPGGSLRLSCAASGFSLSNYAMIWVRQAPGKGLEWVGTISLGGYTYYANWAKGRFTISKDSSKTTVYLQMNSLRAEDTAVYFCARARWSTDSAIYTYAFDPWGPGTLVTVSS VL: DYQMTQSPSSLSASVGDRVTITCQASQSISSYLSWYQQKPGKRPKLLIYKASTLASGVPSRFSGSGSGTDFTLTISSLQPEDFATYYCQQGYTSSNIDNIFGGGTKVEIKR
0.96 ratio	1.06 ratio	–	–	hu.Ab4.H4L1 (antibody, human IgG1, kappa, V domains shown) VH: EQQLLESGGGLVQPGGSLRLSCAVSGFSLSNYAMIWVRQAPGKGLEWVSTISLGGYTYYANWAKGRFTISKDSSKTTVYLQMNSLRAEDTAVYFCARARWSTDSAIYTYAFDPWGPGTLVTVSS VL: DYQMTQSPSSLSASVGDRVTITCQASQSISSYLSWYQQKPGKRPKLLIYKASTLASGVPSRFSGSGSGTDFTLTISSLQPEDFATYYCQQGYTSSNIDNIFGGGTKVEIKR
1.02 ratio	0.9 ratio	–	–	hu.Ab4.H5L1 (antibody, human IgG1, kappa, V domains shown) VH: EQQLLESGGGLVQPGGSLRLSCAVSGFSLSNYAMIWVRQAPGKGLEWVGTISLGGYTYYANWAKGRFTISRDSSKTTVYLQMNSLRAEDTAVYFCARARWSTDSAIYTYAFDPWGPGTLVTVSS VL: DYQMTQSPSSLSASVGDRVTITCQASQSISSYLSWYQQKPGKRPKLLIYKASTLASGVPSRFSGSGSGTDFTLTISSLQPEDFATYYCQQGYTSSNIDNIFGGGTKVEIKR
1.03 ratio	0.72 ratio	–	–	hu.Ab4.H8L1 (antibody, human IgG1, kappa, V domains shown) VH: EQQLLESGGGLVQPGGSLRLSCAVSGFSLSNYAMIWVRQAPGKGLEWVGTISLGGYTYYANWAKGRFTISKDSSKTTLYLQMNSLRAEDTAVYFCARARWSTDSAIYTYAFDPWGPGTLVTVSS VL: DYQMTQSPSSLSASVGDRVTITCQASQSISSYLSWYQQKPGKRPKLLIYKASTLASGVPSRFSGSGSGTDFTLTISSLQPEDFATYYCQQGYTSSNIDNIFGGGTKVEIKR
1.05 ratio	0.44 ratio	–	–	hu.Ab4.H7L1 (antibody, human IgG1, kappa, V domains shown) VH: EQQLLESGGGLVQPGGSLRLSCAVSGFSLSNYAMIWVRQAPGKGLEWVGTISLGGYTYYANWAKGRFTISKDSSKNTVYLQMNSLRAEDTAVYFCARARWSTDSAIYTYAFDPWGPGTLVTVSS VL: DYQMTQSPSSLSASVGDRVTITCQASQSISSYLSWYQQKPGKRPKLLIYKASTLASGVPSRFSGSGSGTDFTLTISSLQPEDFATYYCQQGYTSSNIDNIFGGGTKVEIKR
1.06 ratio	0.68 ratio	–	–	hu.Ab4.H6L1 (antibody, human IgG1, kappa, V domains shown) VH: EQQLLESGGGLVQPGGSLRLSCAVSGFSLSNYAMIWVRQAPGKGLEWVGTISLGGYTYYANWAKGRFTISKDNSKTTVYLQMNSLRAEDTAVYFCARARWSTDSAIYTYAFDPWGPGTLVTVSS VL: DYQMTQSPSSLSASVGDRVTITCQASQSISSYLSWYQQKPGKRPKLLIYKASTLASGVPSRFSGSGSGTDFTLTISSLQPEDFATYYCQQGYTSSNIDNIFGGGTKVEIKR
1.04 ratio	0.87 ratio	–	–	hu.Ab4.H9L1 (antibody, human IgG1, kappa, V domains shown) VH: EQQLLESGGGLVQPGGSLRLSCAVSGFSLSNYAMIWVRQAPGKGLEWVGTISLGGYTYYANWAKGRFTISKDSSKTTVYLQMNSLRAEDTAVYYCARARWSTDSAIYTYAFDPWGPGTLVTVSS VL: DYQMTQSPSSLSASVGDRVTITCQASQSISSYLSWYQQKPGKRPKLLIYKASTLASGVPSRFSGSGSGTDFTLTISSLQPEDFATYYCQQGYTSSNIDNIFGGGTKVEIKR
–	–	1.1 ratio	0.93 ratio	hu.Ab5.H2L1 (antibody, human IgG1, kappa) heavy: not shown light: DIQVTQSPSSLSASVGDRVTITCQASENIANALAWYQQKPGKPPKFLIYGASNLASGVPSRFSGSGSGTDFTFTISSLQPEDIATYYCQQAYYGNSFVEGTFGGGTKVEIKRTVAAPSVFIFPPSDEQLKSGTASVVCLLNNFYPREAKVQWKVDNALQSGNSQESVTEQDSKDSTYSLSSTLTLSKADYEKHKVYACEVTHQGLSSPVTKSFNRGEC
–	–	2.2 ratio	0.96 ratio	hu.Ab5.H7L1 (antibody, human IgG1, kappa, V domains shown) VH: EQQLLESGGGLVQPGGSLRLSCAVSGIDLSTYAMGWVRQAPGKGLEWIGLIHRSGRTYYATWAKGRFTISKDNSKTTVYLQMNSLRAEDTAVYFCTRSYPDYSATASIWGPGTTVTVSS VL: DIQVTQSPSSLSASVGDRVTITCQASENIANALAWYQQKPGKPPKFLIYGASNLASGVPSRFSGSGSGTDFTFTISSLQPEDIATYYCQQAYYGNSFVEGTFGGGTKVEIKR
–	–	2.3 ratio	0.26 ratio	hu.Ab5.H12L1 (antibody, human IgG1, kappa, V domains shown) VH: EVQLLESGGGLVQPGGSLRLSCAASGIDLSTYAMGWVRQAPGKGLEWVSLIHRSGRTYYATWAKGRFTISRDNSKNTLYLQMNSLRAEDTAVYYCTRSYPDYSATASIWGQGTTVTVSS VL: DIQVTQSPSSLSASVGDRVTITCQASENIANALAWYQQKPGKPPKFLIYGASNLASGVPSRFSGSGSGTDFTFTISSLQPEDIATYYCQQAYYGNSFVEGTFGGGTKVEIKR
–	–	1.2 ratio	0.87 ratio	hu.Ab5.H10L1 (antibody, human IgG1, kappa, V domains shown) VH: EQQLLESGGGLVQPGGSLRLSCAVSGIDLSTYAMGWVRQAPGKGLEWIGLIHRSGRTYYATWAKGRFTISKDSSKTTVYLQMNSLRAEDTAVYYCTRSYPDYSATASIWGPGTTVTVSS VL: DIQVTQSPSSLSASVGDRVTITCQASENIANALAWYQQKPGKPPKFLIYGASNLASGVPSRFSGSGSGTDFTFTISSLQPEDIATYYCQQAYYGNSFVEGTFGGGTKVEIKR
–	–	1.4 ratio	0.94 ratio	hu.Ab5.H8L1 (antibody, human IgG1, kappa, V domains shown) VH: EQQLLESGGGLVQPGGSLRLSCAVSGIDLSTYAMGWVRQAPGKGLEWIGLIHRSGRTYYATWAKGRFTISKDSSKNTVYLQMNSLRAEDTAVYFCTRSYPDYSATASIWGPGTTVTVSS VL: DIQVTQSPSSLSASVGDRVTITCQASENIANALAWYQQKPGKPPKFLIYGASNLASGVPSRFSGSGSGTDFTFTISSLQPEDIATYYCQQAYYGNSFVEGTFGGGTKVEIKR
–	–	1.5 ratio	0.95 ratio	hu.Ab5.H4L1 (antibody, human IgG1, kappa, V domains shown) VH: EQQLLESGGGLVQPGGSLRLSCAVSGIDLSTYAMGWVRQAPGKGLEWVGLIHRSGRTYYATWAKGRFTISKDSSKTTVYLQMNSLRAEDTAVYFCTRSYPDYSATASIWGPGTTVTVSS VL: DIQVTQSPSSLSASVGDRVTITCQASENIANALAWYQQKPGKPPKFLIYGASNLASGVPSRFSGSGSGTDFTFTISSLQPEDIATYYCQQAYYGNSFVEGTFGGGTKVEIKR
–	–	1.5 ratio	1 ratio	hu.Ab5.H3L1 (antibody, human IgG1, kappa, V domains shown) VH: EQQLLESGGGLVQPGGSLRLSCAASGIDLSTYAMGWVRQAPGKGLEWIGLIHRSGRTYYATWAKGRFTISKDSSKTTVYLQMNSLRAEDTAVYFCTRSYPDYSATASIWGPGTTVTVSS VL: DIQVTQSPSSLSASVGDRVTITCQASENIANALAWYQQKPGKPPKFLIYGASNLASGVPSRFSGSGSGTDFTFTISSLQPEDIATYYCQQAYYGNSFVEGTFGGGTKVEIKR
–	–	7.6 ratio	0.35 ratio	hu.Ab5.H5L1 (antibody, human IgG1, kappa, V domains shown) VH: EQQLLESGGGLVQPGGSLRLSCAVSGIDLSTYAMGWVRQAPGKGLEWISLIHRSGRTYYATWAKGRFTISKDSSKTTVYLQMNSLRAEDTAVYFCTRSYPDYSATASIWGPGTTVTVSS VL: DIQVTQSPSSLSASVGDRVTITCQASENIANALAWYQQKPGKPPKFLIYGASNLASGVPSRFSGSGSGTDFTFTISSLQPEDIATYYCQQAYYGNSFVEGTFGGGTKVEIKR
–	–	1.3 ratio	0.92 ratio	hu.Ab5.H9L1 (antibody, human IgG1, kappa, V domains shown) VH: EQQLLESGGGLVQPGGSLRLSCAVSGIDLSTYAMGWVRQAPGKGLEWIGLIHRSGRTYYATWAKGRFTISKDSSKTTLYLQMNSLRAEDTAVYFCTRSYPDYSATASIWGPGTTVTVSS VL: DIQVTQSPSSLSASVGDRVTITCQASENIANALAWYQQKPGKPPKFLIYGASNLASGVPSRFSGSGSGTDFTFTISSLQPEDIATYYCQQAYYGNSFVEGTFGGGTKVEIKR
–	–	2.4 ratio	0.97 ratio	hu.Ab5.H6L1 (antibody, human IgG1, kappa, V domains shown) VH: EQQLLESGGGLVQPGGSLRLSCAVSGIDLSTYAMGWVRQAPGKGLEWIGLIHRSGRTYYATWAKGRFTISRDSSKTTVYLQMNSLRAEDTAVYFCTRSYPDYSATASIWGPGTTVTVSS VL: DIQVTQSPSSLSASVGDRVTITCQASENIANALAWYQQKPGKPPKFLIYGASNLASGVPSRFSGSGSGTDFTFTISSLQPEDIATYYCQQAYYGNSFVEGTFGGGTKVEIKR
–	–	1.3 ratio	0.87 ratio	hu.Ab5.H11L1 (antibody, human IgG1, kappa) heavy: not shown light: DIQVTQSPSSLSASVGDRVTITCQASENIANALAWYQQKPGKPPKFLIYGASNLASGVPSRFSGSGSGTDFTFTISSLQPEDIATYYCQQAYYGNSFVEGTFGGGTKVEIKRTVAAPSVFIFPPSDEQLKSGTASVVCLLNNFYPREAKVQWKVDNALQSGNSQESVTEQDSKDSTYSLSSTLTLSKADYEKHKVYACEVTHQGLSSPVTKSFNRGEC
